Measured values as given in patent publication US20250230211A1 (NANTCELL, published 2025).

Assays:
murine CTLA4 = biological target: T1, murine CTLA4 (murine, UniProt P09793 36-161, limits assumed); assay: SPR, antibody captured by anti-human IgG Fc, analyte by OneStep injection at 40 nM and 20 nM
T1 construct: also called Mouse CTLA4
Method: (§1) Surface plasmon resonance (SPR) studies were conducted with the purified fusion proteins to assess their binding affinities to relevant targets. The SPR kinetic assay was performed by immobilizing rabbit α-human IgG Fc antibodies (Thermo) on a PCH sensor (Sartorius) as the capture molecule. All molecules of interest were then captured on the sensor surface by α-IgG1-Fc and Fc domain interaction. Binding kinetics against IL-2Rβ, human CTLA4, and murine CTLA4 were determined by OneStep injection at 40 nM and 20 nM of each analyte. […] The αCTLA4-scFv has higher affinity to CTLA4 than when the binding domain is in IgG form.

human CTLA4 = biological target: T2, human CTLA4 (human, UniProt P16410 36-161); assay: as above
T2 sequence (looked up): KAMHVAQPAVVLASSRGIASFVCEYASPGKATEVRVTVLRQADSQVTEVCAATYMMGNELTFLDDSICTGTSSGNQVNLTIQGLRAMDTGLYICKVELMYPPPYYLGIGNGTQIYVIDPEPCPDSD
Method: as §1

B1: αCTLA4-7 (antibody, human IgG1, kappa, V domains shown)
VH: EVQLVESGGGLVQPGGSLRLSCAASGFTFTSYSMHWVRQAPGKGLEWVSGISGSGRSTSYADSVKGRFTISRDNSKNTLYLQMNSLRAEDTAVYYCARDLMAFNLVRAGGFDVWGQGTLVTVSS
VL: DIQMTQSPSSLSASVGDRVTITCQASQDISNYLNWYQQKPGKAPKLLIYDASNLETGVPSRFSGSGSGTDFTFTISSLQPEDIATYYCQQGDAWPWTFGQGTKVEIKR
Binder B1 has a Kd (murine CTLA4) of 0.13 to 2.1 nM and a Kd (human CTLA4) of 1.1 to 1.6 nM.
